The values below come from patent US20130189225A1 (ASSOCIATION INSTITUT DE MYOLOGIE, published 2013).

T1: murine G3BP (mouse cyclophilin C-associated protein), native protein of mouse serum (mouse, UniProt Q07797 19-577)
T1 construct: also called G3BP murine protein homolog; CyCAP
T1 sequence: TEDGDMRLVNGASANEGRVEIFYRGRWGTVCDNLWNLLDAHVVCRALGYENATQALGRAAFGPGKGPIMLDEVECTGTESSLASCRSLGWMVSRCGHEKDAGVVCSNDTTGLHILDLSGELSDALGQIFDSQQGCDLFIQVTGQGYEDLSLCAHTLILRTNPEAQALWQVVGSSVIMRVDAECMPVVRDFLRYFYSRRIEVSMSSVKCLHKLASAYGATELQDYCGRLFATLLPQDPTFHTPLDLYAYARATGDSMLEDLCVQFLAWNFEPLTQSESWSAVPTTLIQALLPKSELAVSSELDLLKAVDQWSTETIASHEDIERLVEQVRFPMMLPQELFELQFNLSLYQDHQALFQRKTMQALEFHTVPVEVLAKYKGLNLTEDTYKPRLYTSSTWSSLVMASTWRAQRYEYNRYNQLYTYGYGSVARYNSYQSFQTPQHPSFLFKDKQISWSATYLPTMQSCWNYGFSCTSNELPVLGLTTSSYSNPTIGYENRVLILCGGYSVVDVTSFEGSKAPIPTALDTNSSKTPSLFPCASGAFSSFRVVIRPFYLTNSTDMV

T2: human C-reactive protein (CRP), native protein of human serum (human, UniProt P02741 19-224)
T2 construct: mature; also called human CRP; human homolog of CRP
T2 sequence: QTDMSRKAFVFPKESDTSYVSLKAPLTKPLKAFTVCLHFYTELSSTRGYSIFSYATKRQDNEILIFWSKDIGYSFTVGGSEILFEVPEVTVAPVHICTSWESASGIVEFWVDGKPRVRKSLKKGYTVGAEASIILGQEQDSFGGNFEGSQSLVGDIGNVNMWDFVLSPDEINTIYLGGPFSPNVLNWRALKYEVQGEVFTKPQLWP

B1: rAAV-6 (recombinant adeno-associated virus vector with AAV-6 capsid) (other)
chain: MAADGYLPDWLEDNLSEGIREWWDLKPGAPKPKANQQKQDDGRGLVLPGYKYLGPFNGLDKGEPVNAADAAALEHDKAYDQQLKAGDNPYLRYNHADAEFQERLQEDTSFGGNLGRAVFQAKKRVLEPFGLVEEGAKTAPGKKRPVEQSPQEPDSSSGIGKTGQQPAKKRLNFGQTGDSESVPDPQPLGEPPATPAAVGPTTMASGGGAPMADNNEGADGVGNASGNWHCDSTWLGDRVITTSTRTWALPTYNNHLYKQISSASTGASNDNHYFGYSTPWGYFDFNRFHCHFSPRDWQRLINNNWGFRPKRLNFKLFNIQVKEVTTNDGVTTIANNLTSTVQVFSDSEYQLPYVLGSAHQGCLPPFPADVFMIPQYGYLTLNNGSQAVGRSSFYCLEYFPSQMLRTGNNFTFSYTFEDVPFHSSYAHSQSLDRLMNPLIDQYLYYLNRTQNQSGSAQNKDLLFSRGSPAGMSVQPKNWLPGPCYRQQRVSKTKTDNNNSNFTWTGASKYNLNGRESIINPGTAMASHKDDKDKFFPMSGVMIFGKESAGASNTALDNVMITDEEEIKATNPVATERFGTVAVNLQSSSTDPATGDVHVMGALPGMVWQDRDVYLQGPIWAKIPHTDGHFHPSPLMGGFGLKHPPPQILIKNTPVPANPPAEFSATKFASFITQYSTGQVSVEIEWELQKENSKRWNPEVQYTSNYAKSANVDFTVDNNGLYTEPRPIGTRYLTRPL
B2: human galectin 3 binding protein (G3BP), native protein of human serum (other)
chain: VNDGDMRLADGGATNQGRVEIFYRGQWGTVCDNLWDLTDASVVCRALGFENATQALGRAAFGQGSGPIMLDEVQCTGTEASLADCKSLGWLKSNCRHERDAGVVCTNETRSTHTLDLSRELSEALGQIFDSQRGCDLSISVNVQGEDALGFCGHTVILTANLEAQALWKEPGSNVTMSVDAECVPMVRDLLRYFYSRRIDITLSSVKCFHKLASAYGARQLQGYCASLFAILLPQDPSFQMPLDLYAYAVATGDALLEKLCLQFLAWNFEALTQAEAWPSVPTDLLQLLLPRSDLAVPSELALLKAVDTWSWGERASHEEVEGLVEKIRFPMMLPEELFELQFNLSLYWSHEALFQKKTLQALEFHTVPFQLLARYKGLNLTEDTYKPRIYTSPTWSAFVTDSSWSARKSQLVYQSRRGPLVKYSSDYFQAPSDYRYYPYQSFQTPQHPSFLFQDKRVSWSLVYLPTIQSCWNYGFSCSSDELPVLGLTKSGGSDRTIAYENKALMLCEGLFVADVTDFEGWKAAIPSALDTNSSKSTSSFPCPAGHFNGFRTVIRPFYLTNSSGVD
notes: also called hu-G3BP; huG3BP

Assay [1] has as its target T1, murine G3BP (mouse cyclophilin …). The experiment in a line: AAV6 incubated with seronegative murine serum, ultracentrifugation, 2D gel.
Assay [2] concerns the target B2. Put plainly: surface plasmon resonance imagery, rAAV immobilised on glass prism, hu-G3BP injected.
The target of assay [3] is T2, human C-reactive protein (CRP), native …. Put plainly: rAAV-6 immobilised on AVB-Sepharose incubated with human serum; PAGE and Western blot with human CRP specific antibodies. (In general: A western blot detects proteins with antibodies after separation by electrophoresis.)
Assay [4] concerns the target rAAV-2 (recombinant adeno-associated virus vector with AAV-2 capsid) (adeno-associated virus serotype 2, UniProt P03135 1-735). Put plainly: rAAV immobilised on AVB-Sepharose beads incubated with seronegative human serum; Western blot for G3BP.

Sequence of rAAV-2 (recombinant adeno-associated virus vector with AAV-2 capsid) (P03135 whole entry): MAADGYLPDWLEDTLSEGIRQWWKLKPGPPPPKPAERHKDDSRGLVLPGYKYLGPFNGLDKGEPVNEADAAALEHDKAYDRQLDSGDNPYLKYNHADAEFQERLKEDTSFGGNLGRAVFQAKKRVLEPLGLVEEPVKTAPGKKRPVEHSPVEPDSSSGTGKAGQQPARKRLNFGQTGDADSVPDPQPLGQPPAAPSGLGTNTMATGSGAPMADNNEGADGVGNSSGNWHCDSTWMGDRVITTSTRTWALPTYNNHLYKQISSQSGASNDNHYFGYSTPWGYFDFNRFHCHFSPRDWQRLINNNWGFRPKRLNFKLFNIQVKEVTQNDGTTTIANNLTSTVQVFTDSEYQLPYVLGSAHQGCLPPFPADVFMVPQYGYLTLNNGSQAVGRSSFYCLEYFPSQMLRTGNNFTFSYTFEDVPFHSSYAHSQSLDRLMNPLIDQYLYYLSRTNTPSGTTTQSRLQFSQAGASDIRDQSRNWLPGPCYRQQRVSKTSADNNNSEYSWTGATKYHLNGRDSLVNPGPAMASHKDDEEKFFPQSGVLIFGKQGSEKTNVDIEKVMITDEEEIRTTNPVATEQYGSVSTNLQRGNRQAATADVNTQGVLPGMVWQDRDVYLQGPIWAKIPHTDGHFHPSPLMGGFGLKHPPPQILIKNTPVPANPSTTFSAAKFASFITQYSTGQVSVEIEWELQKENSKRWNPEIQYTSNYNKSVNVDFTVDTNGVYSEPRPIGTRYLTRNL

For the molecule B1, the binding result in assay [1] and in assay [3] was “no binding” in each case. This molecule also had a Ka in assay [2] of roughly 1e+09 M⁻¹.
With B2, the binding result in assay [4] is listed as “no binding”.
